Results taken from US11357847B2, “Modified HSV gD protein and vaccine containing same” (KM Biologics Co., Ltd., priority 2017, dated 2022).

B1: gD1-315v3-55V: Table 12: glycochain D, F, T cell epitope peptide and V231W (protein)
chain: KYALADPSLKMADPNRFRGKNLPVLDQLTDPPGVKRVYHIQPSLEDPFQNASIPITVYYAVLERACRSVLLHAPSEAPQIVRGASDEARKHTYNLTIAWYRMGDNCAIPITVMEYTECPYNKSLGVCPIRTQPRWSYYDSFSAVSEDNLGFLMHAPAFETAGTYLRLVKINDWTEITQFILEHRARASCKYALPLRIPPAACLTSKAYQQGVTVDSIGMLPRFIPENQRTWALYSLKIAGWHGPKPPYTSTLLPPELSDTTNATQPELVPEDPEDSALLEDPAGTVSSQIPPNWHIPSIQDVAPHHAPAAPSNPGGPGPGIAFWVRRRAQMAPKPLRIAFWVRRRAQMAPKPLRHHHHHH
modifications: left off: small tags and cut ends
B2: gD1-315v5-55V: gD1-315 with glycochains at SC-A, SC-F, T cell epitope peptide DP5 and V231W (protein)
chain: KYALADPSLKMADPNRFRGKNLPVLDQLTDPPGVKRVYHIQPSLEDPFQNASIPITVYYAVLERACRSVLLHAPSEAPQIVRGASDEARKHTYNLTIAWYRMGDNCAIPITVMEYTECPYNKSLGVCPIRTQPRWSYYDSFSAVSEDNLGFLMHAPAFETAGTYLRLVKINDWTEITQFILEHRANASCKYALPLRIPPAACLTSKAYQQGVTVDSIGMLPRFIPENQRTWALYSLKIAGWHGPKPPYTSTLLPPELSDTTNATQPELVPEDPEDSALLEDPAGTVSSQIPPNWHIPSIQDVAPHHAPAAPSNPGGPGPGIAFWVRRRAQMAPKPLRIAFWVRRRAQMAPKPLRHHHHHH
modifications: left off: small tags and cut ends
B3: gD1-315V (protein)
chain: KYALADPSLKMADPNRFRGKNLPVLDQLTDPPGVKRVYHIQPSLEDPFQPPSIPITVYYAVLERACRSVLLHAPSEAPQIVRGASDEARKHTYNLTIAWYRMGDNCAIPITVMEYTECPYNKSLGVCPIRTQPRWSYYDSFSAVSEDNLGFLMHAPAFETAGTYLRLVKINDWTEITQFILEHRARASCKYALPLRIPPAACLTSKAYQQGVTVDSIGMLPRFIPENQRTWALYSLKIAGWHGPKPPYTSTLLPPELSDTTNATQPELVPEDPEDSALLEDPAGTVSSQIPPNWHIPSIQDVAPHHAPAAPSNPGHHHHHH
B4: gD1-315v3: gD1-315 with glycochain introduced at P50 (SC-F) (protein)
chain: KYALADPSLKMADPNRFRGKNLPVLDQLTDPPGVKRVYHIQPSLEDPFQNASIPITVYYAVLERACRSVLLHAPSEAPQIVRGASDEARKHTYNLTIAWYRMGDNCAIPITVMEYTECPYNKSLGVCPIRTQPRWSYYDSFSAVSEDNLGFLMHAPAFETAGTYLRLVKINDWTEITQFILEHRARASCKYALPLRIPPAACLTSKAYQQGVTVDSIGMLPRFIPENQRTVALYSLKIAGWHGPKPPYTSTLLPPELSDTTNATQPELVPEDPEDSALLEDPAGTVSSQIPPNWHIPSIQDVAPHHAPAAPSNPGHHHHHH
B5: gD1-315v5V: gD1-315 with glycochains at SC-A, SC-F and V231W (protein)
chain: KYALADPSLKMADPNRFRGKNLPVLDQLTDPPGVKRVYHIQPSLEDPFQNASIPITVYYAVLERACRSVLLHAPSEAPQIVRGASDEARKHTYNLTIAWYRMGDNCAIPITVMEYTECPYNKSLGVCPIRTQPRWSYYDSFSAVSEDNLGFLMHAPAFETAGTYLRLVKINDWTEITQFILEHRANASCKYALPLRIPPAACLTSKAYQQGVTVDSIGMLPRFIPENQRTWALYSLKIAGWHGPKPPYTSTLLPPELSDTTNATQPELVPEDPEDSALLEDPAGTVSSQIPPNWHIPSIQDVAPHHAPAAPSNPGHHHHHH

Tests used:
HSV-2 MS strain = test: Mouse infection-prevention test of modified gD (genital herpes infection model); assay type: in vivo, BALB/c mice; parameters: key to Determination (vs gD1-315) / Determination# (vs gD1-315): ++: minimum effective dose based on the Significant difference test in three-fold common ratio relative to gD1-315(WT) of two or more doses stronger; +: those of one dose stronger; ±: those of an equivalent value
Protocol: Immunogenicity test of the modified gD antigen was performed using the wild-type gD antigen gD1-315 (WT) as a positive control and saline as a negative control. A predetermined amount of antigen was dissolved in saline for injection (saline) with MPLA (10 μg/mouse) and CpG (1 μg/mouse) and immunized to mice at a volume of 200 μL/mouse. BALB/c mice (5 weeks old, female) were used for the study and immunized subcutaneously in back at 2-week intervals for a total of 3 times (N=4 cases per group). Two weeks after the final immunization (third dose), blood was collected and serum was prepared for each individual. The prepared serum was serially diluted and assessed for neutralizing antibody-inducing activity against HSV-2 (50% plaque number-reducing activity).
An infection-prevention test in the preventive administration of modified gD antigen was performed using a mouse genital herpes infection model. Similar to the mouse immunogenicity test described above, mice were immunized with the number of N=10 cases per group. Depo-Provera was inoculated subcutaneously at 2 mg/mouse 6 days prior to viral inoculation to improve the multiplicity of infection upon viral inoculation 2 weeks after final immunization (third dose). 5×10^5 PFU/20 μL HSV-2 MS strain was inoculated transvaginally under anesthesia and observed for 21 days. Infection prevention ability was evaluated using survival time (survival rate) as index.
The infection model of the mouse genital herpes infection model was used to evaluate infection prevention ability of various modified gD in preventive administration. The number of animal cases in each group was set to n=10, and wild-type gD (gD1-315) was used as a positive control and saline was used as a negative control. The experiments were performed a total of four times (experiments 1-4) and four doses of 0.1 μg/mouse/time, 0.03 μg/mouse/time, 0.01 μg/mouse/time and 0.003 μg/mouse/time were set for all of the positive control, negative control, and subject modified gD antigen. Depo-Provera was inoculated subcutaneously at 2 mg/mouse 6 days prior to viral inoculation to improve the multiplicity of infection upon viral inoculation 2 weeks after final immunization (third dose). 5×10^5 PFU/20 HSV-2 MS strain was inoculated transvaginally under anesthesia and observed for 21 days. Infection prevention ability was evaluated using survival time (survival rate) as index. Mean values of those were plotted in the graph. A Significant difference test for the negative control group was performed by the Kaplan-Meier method, and those with a minimum effective dose based on the Significant difference test in three-fold common ratio relative to wild type gD of two or more doses stronger were determined to be “++”, those of one dose stronger were determined to be “+”, and those of an equivalent value were determined to be “±”.

[1] = test system: various anti-gD2 antibodies; test: Reactivity of gD variants with anti-gD2 antibodies (competitive ELISA); assay type: binding, human; details: for Relative reactivity with antibody No. 82 (gD1-315 wild-type set to 1): FIG. 13; for Reactivity with anti-gD2 antibody 1 / Reactivity with anti-gD2 antibody 5 / Reactivity with anti-gD2 antibody 13 / Reactivity with anti-gD2 antibody 72 / Reactivity with anti-gD2 antibody 75 / Reactivity with anti-gD2 antibody 78 / Reactivity with anti-gD2 antibody 82: immobilized gD variant
Text: Each anti-gD2 monoclonal antibody and each gD variant were expressed using an Expi293 expression system.

[2] = Experiment 2, 0.003 μg/head/time
[3] = Experiment 2, 0.01 μg/head/time
[4] = Experiment 2, 0.03 μg/head/time
[5] = Experiment 1, 0.003 μg/head/time
[6] = Experiment 1, 0.01 μg/head/time
[7] = Experiment 1, 0.03 μg/head/time
[8] = Experiment 4, 0.01 μg/head/time
[9] = Experiment 4, 0.03 μg/head/time
[10] = Experiment 4, fourth dose line, 0.03 μg/head/time

Molecule	Relative reactivity with antibody No. 82 (gD1-315 wild-type set to 1) [1]	Reactivity with anti-gD2 antibody 1 [1]	Reactivity with anti-gD2 antibody 5 [1]	Reactivity with anti-gD2 antibody 13 [1]	Reactivity with anti-gD2 antibody 72 [1]	Reactivity with anti-gD2 antibody 75 [1]	Reactivity with anti-gD2 antibody 78 [1]	Reactivity with anti-gD2 antibody 82 [1]	further results
B1	slightly reduced	+ ((+): 70% or more)	− ((−): less than 30%)	+ ((+): 70% or more)	± ((±): 30% or more and less than 70%)	± ((±): 30% or more and less than 70%)	− ((−): less than 30%)	+ ((+): 70% or more)	Mean survival time (HSV-2 MS strain; [2]): 7 days; Significant difference test (vs saline) (HSV-2 MS strain; [2]): N.S.; Mean survival time (HSV-2 MS strain; [3]): >16.5 days; Significant difference test (vs saline) (HSV-2 MS strain; [3]): N.S.; Mean survival time (HSV-2 MS strain; [4]): >22 days; Significant difference test (vs saline) (HSV-2 MS strain; [4]): ** (** 0.001 = < p < 0.01); Mean survival time (HSV-2 MS strain; Experiment 2, 0.1 μg/head/time): >22 days; Significant difference test (vs saline) (HSV-2 MS strain; Experiment 2, 0.1 μg/head/time): *** (*** p < 0.001); Determination# (vs gD1-315) (HSV-2 MS strain; Experiment 2, minimum effective dose relative to gD1-315(WT)): +
B2	slightly reduced	+ ((+): 70% or more)	− ((−): less than 30%)	+ ((+): 70% or more)	+ ((+): 70% or more)	− ((−): less than 30%)	− ((−): less than 30%)	+ ((+): 70% or more)	Mean survival time (HSV-2 MS strain; [5]): 10 days; Significant difference test (vs saline) (HSV-2 MS strain; [5]): ** (** 0.001 = < p < 0.01); Mean survival time (HSV-2 MS strain; [6]): >21 days; Significant difference test (vs saline) (HSV-2 MS strain; [6]): *** (*** p < 0.001); Mean survival time (HSV-2 MS strain; [7]): >21 days; Significant difference test (vs saline) (HSV-2 MS strain; [7]): *** (*** p < 0.001); Mean survival time (HSV-2 MS strain; Experiment 1, 0.1 μg/head/time): >21 days; Significant difference test (vs saline) (HSV-2 MS strain; Experiment 1, 0.1 μg/head/time): *** (*** p < 0.001); Determination (vs gD1-315) (HSV-2 MS strain; Experiment 1, minimum effective dose relative to gD1-315(WT)): ++; Mean survival time (HSV-2 MS strain; [8]): >21 days; Significant difference test (vs saline) (HSV-2 MS strain; [8]): * (* 0.01 = < p < 0.05); Mean survival time (HSV-2 MS strain; [9]): >21 days; Significant difference test (vs saline) (HSV-2 MS strain; [9]): *** (*** p < 0.001); Mean survival time (HSV-2 MS strain; Experiment 4, 0.1 μg/head/time): >21 days; Significant difference test (vs saline) (HSV-2 MS strain; Experiment 4, 0.1 μg/head/time): *** (*** p < 0.001); Mean survival time (HSV-2 MS strain; [10]): 8.5 days; Significant difference test (vs saline) (HSV-2 MS strain; [10]): N.S.; Determination# (vs gD1-315) (HSV-2 MS strain; Experiment 4, minimum effective dose relative to gD1-315(WT)): ++
B3		+ ((+): 70% or more)	+ ((+): 70% or more)	+ ((+): 70% or more)	+ ((+): 70% or more)	+ ((+): 70% or more)	+ ((+): 70% or more)	+ ((+): 70% or more)	
B4		+ ((+): 70% or more)	− ((−): less than 30%)	+ ((+): 70% or more)	− ((−): less than 30%)	− ((−): less than 30%)	− ((−): less than 30%)	+ ((+): 70% or more)	
B5		+ ((+): 70% or more)	− ((−): less than 30%)	+ ((+): 70% or more)	± ((±): 30% or more and less than 70%)	± ((±): 30% or more and less than 70%)	− ((−): less than 30%)	+ ((+): 70% or more)	
